Laboratory results: patent US11648290B2, “Cartilage-homing peptides” (FRED HUTCHINSON CANCER CENTER, priority 2015, dated 2023)

How the values were obtained:
[1] = molecular target: T1, trypsin (Bos taurus, UniProt P00760); assay: Peptide resistance to trypsin digestion (RP-HPLC); assay type: in vitro ADME
T1 construct: gene PRSS1
T1 sequence (P00760 24-246): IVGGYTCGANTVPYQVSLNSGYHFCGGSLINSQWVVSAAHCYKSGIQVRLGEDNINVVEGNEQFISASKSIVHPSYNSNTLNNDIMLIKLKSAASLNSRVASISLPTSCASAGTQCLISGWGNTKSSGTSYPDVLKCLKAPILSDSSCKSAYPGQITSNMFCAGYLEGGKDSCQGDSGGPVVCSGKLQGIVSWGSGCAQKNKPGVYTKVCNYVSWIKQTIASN
Experimental: Various peptides were suspended in 500 μl of ddH2O at a stock concentration of 2 mg/ml. Reactions were prepared with 12.5 μg peptide and 5 μg trypsin in 25 mM Tris/75 mM NaCl buffer (pH 7.0) and incubated for 30 minutes at 37.5° C. Reactions were quenched with 5 μg of soybean trypsin inhibitor and 10 mM dithiothreitol (DTT). Reversed phase HPLC (RP-HPLC) was run on samples using an Agilent 1260 HPLC equipped with a C-18 Poroshell 120B column. Sample were analyzed by a gradient method with a mobile phase of Solvent A (water with 0.1% TFA) and Solvent B (acetonitrile with 0.1% TFA). Solvent B was ramped up from 5%-45% of the mobile phase over a period of 10 minutes.

[2] = Temperature stability of peptides (RP-HPLC); assay type: physicochemical
Experimental: This example illustrates peptide stability at high temperatures. Peptides were first suspended in 500 μl of ddH2O to a stock concentration of 2 mg/ml. Reactions were prepared by adding 6.25 μl of peptide from the stock solution with 95 μl ddH2O and incubated at room temperature, 70° C., or 100° C. for one hour in a Thermocycler. RP-HPLC was then run on samples using an Agilent 1260 HPLC equipped with a C-18 Poroshell 120B column. Sample were analyzed by a gradient method with a mobile phase of Solvent A (water with 0.1% TFA) and Solvent B (acetonitrile with 0.1% TFA). Solvent B was ramped up from 5%-45% of the mobile phase over a period of 10 minutes.
Peptides of SEQ ID NO: 28 and SEQ ID NO: 483 were analyzed by HPLC after incubation at room temperature (25° C.), 70° C., or 100° C. for one hour.

With “GSISIGIKCSPSIDLCEGQCRIRKYFTGYCSGDTCHCSG [SEQ ID NO: 483]” the “Resistance to degradation by trypsin” value ([1]; 12.5 ug peptide, 5 ug trypsin, pH 7.0, 30 minutes at 37.5 C) was “partially resistant to degradation by trypsin”, the “Resistance to reduction by DTT (FIG. 54)” value ([1]; 10 mM DTT) was “partially resistant to reduction by DTT” and the “Stability after heat incubation (HPLC)” value ([2]; 70 C for 1 hour) was “resistant to heat-induced degradation”. For the same sequence, the “Stability after heat incubation (HPLC)” value ([2]; 100 C for 1 hour) was “underwent various degrees of degradation”.
